Data on 25 substances can be found in patent publication US20120283168A1.

Square brackets hold non-standard residues; d marks the D form. Tic = O=C(O)[C@@H]1Cc2ccccc2CN1; Dab = NCC[C@H](N)C(=O)O; Aib = CC(C)(N)C(=O)O

The assay deals with human CCR10 (human) (UniProt P46092). Nature of the assay: cell-based or functional assay.
Chain of human CCR10 (human) (P46092 whole entry): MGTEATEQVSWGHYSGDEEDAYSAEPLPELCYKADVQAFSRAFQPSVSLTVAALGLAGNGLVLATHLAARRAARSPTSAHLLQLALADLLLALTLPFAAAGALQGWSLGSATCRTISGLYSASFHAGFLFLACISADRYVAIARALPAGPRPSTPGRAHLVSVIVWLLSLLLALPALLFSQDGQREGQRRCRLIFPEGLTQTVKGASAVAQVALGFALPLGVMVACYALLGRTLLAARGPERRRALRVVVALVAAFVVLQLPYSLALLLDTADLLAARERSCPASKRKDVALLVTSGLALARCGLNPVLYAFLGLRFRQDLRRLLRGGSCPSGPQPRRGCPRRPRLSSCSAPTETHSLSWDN
Turning to “cyclo(-Phe(4COOMe)-Cyp-Trp-Dab-^DPro-Oic-) (peptide)”, the IC50 (nM) Calcium Flux Assay came out at 476 nM and the IC50 (nM) Chemotaxis Assay amounted to 14.7 nM.

As for “cyclo(-Trp-Cyp-Trp-Ala(Ppz)-^DPro-Oic-) (peptide)”, the IC50 (nM) Calcium Flux Assay amounted to 1060 nM and the IC50 (nM) Chemotaxis Assay was 16.4 nM.

With “cyclo(-Trp-Cyp-Trp-Ser-^DPro-Oic-) (peptide)”, the IC50 (nM) Calcium Flux Assay was determined as 61.6 nM and the IC50 (nM) Chemotaxis Assay is 1.4 nM. As for “cyclo(-Trp-Cyp-Trp-hSer(Me)-^DPro-Oic-) (peptide)”, the IC50 (nM) Calcium Flux Assay is 12 nM and the IC50 (nM) Chemotaxis Assay is 1.8 nM. For “cyclo(-hTyr-Cyp-Trp-Dab-^DPro-Oic-) (peptide)”, the IC50 (nM) Calcium Flux Assay is 516 nM and the IC50 (nM) Chemotaxis Assay was determined as 13 nM.

Turning to “cyclo(-Trp(5OH)-Cyp-Trp-Arg-^DPro-Tic-) (peptide)”, the IC50 (nM) Calcium Flux Assay stood at 52.5 nM. In the case of “cyclo(-Phe(4CN)-Cyp-Phe(4F)-Ser-^DPro-Hyp(Bn)-) (peptide)”, the IC50 (nM) Calcium Flux Assay was 1.9 nM and the IC50 (nM) Chemotaxis Assay turned out to be 13.5 nM.

Regarding “cyclo(-Trp-Cyp-Trp-Dab-^DAze-Tic-) (peptide)”, the IC50 (nM) Calcium Flux Assay stood at 57 nM. For the substance “cyclo(-Trp-Cyp-Trp-Dab-^DPro-Hyp(Bn)-) (peptide)”, the IC50 (nM) Calcium Flux Assay was 65.8 nM and the IC50 (nM) Chemotaxis Assay was 14 nM.

Regarding “cyclo(-Trp-Cyp-Tyr(Me)-Dab-^DPro-Oic-) (peptide)”, the IC50 (nM) Calcium Flux Assay is 214 nM and the IC50 (nM) Chemotaxis Assay amounted to 3.8 nM.

Consider “cyclo(-Trp-Cyp-Trp-Dab-^DPro-Hyp(4BrBn)-) (peptide)”, for which the IC50 (nM) Calcium Flux Assay worked out at 11.6 nM and the IC50 (nM) Chemotaxis Assay was 2.5 nM. The like results for “cyclo(-Trp-Cyp-Trp-Dab-^DPro-Pro((4R)Bn)-) (peptide)” were, in that order, 26.1 nM and 2.3 nM. As for “cyclo(-Trp-Cyp-Trp-Ser(Me)-^DPro-Oic-) (peptide)”, the IC50 (nM) Calcium Flux Assay is 46.4 nM and the IC50 (nM) Chemotaxis Assay was 10.1 nM. Turning to “cyclo(-Trp-Cyp-Trp-Arg-^DAze-Tic-) (peptide)”, the IC50 (nM) Calcium Flux Assay stood at 70.4 nM.

As for “cyclo(-Phe(4CF3)-Cyp-Trp-Dab-^DPip-Pro((4R)Ph)-) (peptide)”, the IC50 (nM) Calcium Flux Assay came to 14.8 nM and the IC50 (nM) Chemotaxis Assay stood at 22 nM.

As for “cyclo(-Trp-Cyp-Trp-hCys-^DPro-Oic-) (peptide)”, the IC50 (nM) Calcium Flux Assay was found to be 54.9 nM and the IC50 (nM) Chemotaxis Assay worked out at 8.7 nM.

Regarding “cyclo(-Trp-Cyp-Trp-Dab-^DPro-Hyp(CONHPh)-) (peptide)”, the IC50 (nM) Calcium Flux Assay turned out to be 150 nM and the IC50 (nM) Chemotaxis Assay amounted to 184 nM. As to cyclo(W[Aib]W[Dab][dP][Tic]), the IC50 (nM) Calcium Flux Assay came out at 200 nM and the IC50 (nM) Chemotaxis Assay came to 21.6 nM. In the case of “cyclo(-Trp-Cyp-Trp-Dap(CONH2)-^DPro-Oic-) (peptide)”, the IC50 (nM) Calcium Flux Assay is 20 nM and the IC50 (nM) Chemotaxis Assay came out at 4.7 nM. Turning to “cyclo(-Trp-Cyp-Trp-Arg-^DPro-Thz-) (peptide)”, the IC50 (nM) Calcium Flux Assay came to 70.6 nM. With “cyclo(-Trp-Chx-Trp-Dab-^DPro-Oic-) (peptide)”, the IC50 (nM) Calcium Flux Assay stood at 333 nM and the IC50 (nM) Chemotaxis Assay was 3.1 nM. Take “cyclo(-Trp-Cyp-Trp-Lys(Bz)-^DPro-Oic-) (peptide)”: the IC50 (nM) Calcium Flux Assay worked out at 3 nM and the IC50 (nM) Chemotaxis Assay turned out to be 2.7 nM. As to “cyclo(-Trp-Cyp-Trp-Dab(MeO(CH2)2NHCO)-^DPro-Oic-) (peptide)”, the IC50 (nM) Calcium Flux Assay came out at 24.2 nM and the IC50 (nM) Chemotaxis Assay came out at 5.3 nM. The like results for “cyclo(-Trp-Cyp-Trp-Dab(Ac)-^DPro-Oic-) (peptide)” were, in that order, 30.3 nM and 4.8 nM. On to “cyclo(-OctG-Cyp-Trp-Dab-^DPro-Oic-) (peptide)”, for which the IC50 (nM) Calcium Flux Assay is 40.4 nM and the IC50 (nM) Chemotaxis Assay amounted to 4.2 nM.
